Results from patent US20030166162.

What was measured:
[1] = test system: poly histidine tagged chymosin pro-peptide carp growth hormone fusion protein
[2] = test system: GST-Chymosin pro-peptide-Hirudin fusion protein

Substance	cleavage of the fusion protein, SDS-PAGE and Western blot [1]	cleavage of the fusion protein at pH 2.0, Western blotting (results not shown) [2]	cleavage of the fusion protein at pH 4.5, Western blotting (results not shown) [2]	cleavage of the fusion protein at pH 2, SDS-PAGE and Western blot [1]
enterokinase	cleavage of the fusion protein was observed with enterokinase yielding a protein band corresponding to the calculated molecular mass of the Pro-cGH fusion (26 kDa)			
chymosin (Sigma)		complete cleavage was also observed when the GST-Pro-Hirudin fusion which was treated at pH 2.0 and supplemented with 2 ug chymosin	apart from treatment at pH 4.5, complete cleavage was also observed	the cleavage with chymosin yielded a protein band corresponding to the expected theoretical molecular mass of the cGH (approximately 22 kDa) polypeptide
